According to patent US20220348617A1:

Key:
[1] = target: Notch2 EGF domains 6-13 (human) (UniProt Q04721); assay: SPR; N-EGF3; conditions: ligand
[2] = target: Notch 3 EGF domains 5-12 (human) (UniProt Q9UM47); assay: SPR; N-EGF3; conditions: ligand
[3] = target: Notch1 EGF domains 6-13 (human) (UniProt P46531); assay: SPR; N-EGF3; conditions: ligand
[4] = target: Notch2 EGF domains 6-13 (human) (UniProt Q04721); assay: SPR; conditions: ligand
[5] = target: Notch 3 EGF domains 5-12 (human) (UniProt Q9UM47); assay: SPR; conditions: ligand
[6] = target: Notch1 EGF domains 6-13 (human) (UniProt P46531); assay: SPR; conditions: ligand
[7] = target: Notch1 on the fluorescent Notch1 reporter cell line (CHO^N1); assay: cell-based or functional assay

Chain of Notch2 EGF domains 6-13 (human) (Q04721 221-530): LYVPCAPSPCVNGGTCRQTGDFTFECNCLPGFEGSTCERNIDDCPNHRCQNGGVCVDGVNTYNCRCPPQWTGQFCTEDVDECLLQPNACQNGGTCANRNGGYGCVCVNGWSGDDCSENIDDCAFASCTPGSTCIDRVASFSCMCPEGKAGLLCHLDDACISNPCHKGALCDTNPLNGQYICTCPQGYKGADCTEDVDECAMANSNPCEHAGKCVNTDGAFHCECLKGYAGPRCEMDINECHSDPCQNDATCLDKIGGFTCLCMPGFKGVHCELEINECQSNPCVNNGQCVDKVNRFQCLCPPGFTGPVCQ
Chain of Notch1 EGF domains 6-13 (human) (P46531 218-526): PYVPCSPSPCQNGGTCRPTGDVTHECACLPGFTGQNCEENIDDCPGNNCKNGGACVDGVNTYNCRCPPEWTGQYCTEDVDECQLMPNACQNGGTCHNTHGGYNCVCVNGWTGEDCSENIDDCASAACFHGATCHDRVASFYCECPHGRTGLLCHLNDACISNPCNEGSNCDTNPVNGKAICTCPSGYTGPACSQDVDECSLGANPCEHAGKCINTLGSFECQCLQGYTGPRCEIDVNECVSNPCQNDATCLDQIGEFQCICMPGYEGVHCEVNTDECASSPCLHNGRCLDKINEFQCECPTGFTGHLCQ
Chain of Notch 3 EGF domains 5-12 (human) (Q9UM47 197-505): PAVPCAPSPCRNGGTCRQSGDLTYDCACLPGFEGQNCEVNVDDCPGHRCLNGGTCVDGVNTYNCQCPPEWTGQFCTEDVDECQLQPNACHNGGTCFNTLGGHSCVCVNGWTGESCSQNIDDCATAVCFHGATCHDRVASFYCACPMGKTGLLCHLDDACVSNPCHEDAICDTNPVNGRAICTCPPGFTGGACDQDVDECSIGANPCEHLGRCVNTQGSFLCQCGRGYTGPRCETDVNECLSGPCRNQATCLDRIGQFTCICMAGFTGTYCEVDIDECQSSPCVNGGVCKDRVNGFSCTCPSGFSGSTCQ

| Substance | Kd [1] | Kd [2] | Kd [3] | Kd [4] | Kd [5] | Kd [6] | Notch1 activation (fluorescent Notch1 reporter cells, co-culture) [7] |
| --- | --- | --- | --- | --- | --- | --- | --- |
| E12 human DLL4 (from UniProt Q9NR61 27-322) | 244 nM | 122 nM | 103 nM | 750 nM | 470 nM | 450 nM |  |
| N3a.5_E12 human DLL4 (from UniProt Q9NR61 27-322) |  |  |  | 7.4 nM | 4.7 nM | 2 nM |  |
| N3a.8_E12 human DLL4 (from UniProt Q9NR61 27-322) |  |  |  | 15.3 nM | 7.2 nM | 4.2 nM |  |
| wild-type human DLL4 expressed on 293T cells (from UniProt Q9NR61 27-685) (ligand) |  |  |  |  |  |  | 100% |
